Source: the supplement of paper PMC5998384

Key:
HeLa Kyoto [1] = assay: solubility change mitosis vs G1/S (difference of NP-40 vs SDS log2 ratios) (log2 ratio difference); higher = more soluble in mitosis
HeLa Kyoto [2] = assay: melting temperature (median over replicates), in situ; higher = more thermally stable
HeLa Kyoto [3] = assay: thermal stability score vs G1/S (z-score of summed log2 fold changes over temperatures); higher = more thermally stable than in G1/S
[4] = cell cycle stage: early G1 (4.5 h after nocodazole release)
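Wherever melting temperature (median over replicates), in situ is given: HeLa Kyoto cells synchronized by double thymidine or nocodazole block, proteins quantified by TMT10plex mass spectrometry, three independent biological replicates.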
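Wherever solubility change mitosis vs G1/S (difference of NP-40 vs SDS log2 ratios) is given: synchronized HeLa Kyoto cells (double thymidine block for G1/S, nocodazole release for mitosis), protein amounts in NP-40 versus SDS lysates quantified by mass spectrometry, three biological replicates.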
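Wherever thermal stability score vs G1/S (z-score of summed log2 fold changes over temperatures) is given: synchronized HeLa Kyoto cells, proteins quantified by TMT10plex mass spectrometry, three biological replicates, mitosis taken 0.5 h after nocodazole release, G1/S directly after double thymidine block.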

SBF2, sequence (chain, as listed by the source): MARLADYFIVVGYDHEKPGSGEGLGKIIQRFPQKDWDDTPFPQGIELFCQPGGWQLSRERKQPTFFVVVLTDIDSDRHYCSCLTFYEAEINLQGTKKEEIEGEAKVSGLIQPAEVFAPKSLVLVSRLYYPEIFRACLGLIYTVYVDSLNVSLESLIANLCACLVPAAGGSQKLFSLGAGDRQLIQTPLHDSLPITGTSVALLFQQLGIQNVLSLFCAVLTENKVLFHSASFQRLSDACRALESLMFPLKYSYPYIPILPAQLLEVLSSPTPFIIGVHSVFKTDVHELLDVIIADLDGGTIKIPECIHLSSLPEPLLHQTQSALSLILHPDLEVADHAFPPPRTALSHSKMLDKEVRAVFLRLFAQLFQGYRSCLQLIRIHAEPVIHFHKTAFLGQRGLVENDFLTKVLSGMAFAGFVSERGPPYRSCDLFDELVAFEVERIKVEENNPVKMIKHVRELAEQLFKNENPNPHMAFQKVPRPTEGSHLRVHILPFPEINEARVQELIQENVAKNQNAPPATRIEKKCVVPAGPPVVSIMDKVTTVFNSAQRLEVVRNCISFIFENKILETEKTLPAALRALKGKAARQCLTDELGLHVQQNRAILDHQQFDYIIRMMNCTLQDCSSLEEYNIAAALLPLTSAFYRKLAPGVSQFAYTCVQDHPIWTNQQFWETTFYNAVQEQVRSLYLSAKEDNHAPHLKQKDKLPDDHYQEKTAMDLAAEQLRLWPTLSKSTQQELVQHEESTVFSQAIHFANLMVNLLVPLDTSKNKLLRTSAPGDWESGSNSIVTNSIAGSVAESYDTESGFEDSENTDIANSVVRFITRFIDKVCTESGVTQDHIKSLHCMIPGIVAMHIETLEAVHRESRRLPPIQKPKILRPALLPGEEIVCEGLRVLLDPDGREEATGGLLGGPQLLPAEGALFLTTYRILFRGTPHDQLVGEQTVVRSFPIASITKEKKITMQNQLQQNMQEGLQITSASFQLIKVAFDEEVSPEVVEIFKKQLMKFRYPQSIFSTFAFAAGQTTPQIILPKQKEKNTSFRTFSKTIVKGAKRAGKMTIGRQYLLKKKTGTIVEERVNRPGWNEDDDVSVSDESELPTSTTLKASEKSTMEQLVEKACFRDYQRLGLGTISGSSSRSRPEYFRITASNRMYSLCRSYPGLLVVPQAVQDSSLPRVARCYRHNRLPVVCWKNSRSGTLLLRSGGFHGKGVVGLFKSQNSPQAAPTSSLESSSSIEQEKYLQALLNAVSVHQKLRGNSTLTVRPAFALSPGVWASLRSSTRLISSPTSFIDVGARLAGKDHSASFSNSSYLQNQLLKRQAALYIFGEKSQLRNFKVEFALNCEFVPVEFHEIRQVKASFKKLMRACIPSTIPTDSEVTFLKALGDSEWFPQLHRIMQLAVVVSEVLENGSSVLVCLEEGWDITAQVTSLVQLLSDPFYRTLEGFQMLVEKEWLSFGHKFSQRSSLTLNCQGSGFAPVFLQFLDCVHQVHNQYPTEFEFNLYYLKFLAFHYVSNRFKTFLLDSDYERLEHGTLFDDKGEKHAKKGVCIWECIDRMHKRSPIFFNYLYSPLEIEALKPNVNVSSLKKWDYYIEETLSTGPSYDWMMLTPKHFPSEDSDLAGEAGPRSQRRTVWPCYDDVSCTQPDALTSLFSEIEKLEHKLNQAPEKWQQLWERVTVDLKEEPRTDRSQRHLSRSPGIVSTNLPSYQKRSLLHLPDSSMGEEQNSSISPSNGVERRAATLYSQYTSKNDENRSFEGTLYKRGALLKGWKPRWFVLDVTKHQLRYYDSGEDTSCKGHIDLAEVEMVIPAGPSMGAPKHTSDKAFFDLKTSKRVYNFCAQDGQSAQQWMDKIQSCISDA

| Substance | solubility change mitosis (log2) (HeLa Kyoto [1]) | melting temperature (HeLa Kyoto [2]; cell cycle stage: G1/S) | melting temperature (HeLa Kyoto [2]; cell cycle stage: mitosis) | thermal stability score (HeLa Kyoto [3]; [4]) | thermal stability score (HeLa Kyoto [3]; cell cycle stage: mitosis) |
| --- | --- | --- | --- | --- | --- |
| ACTR3 | -0.0203 |  |  |  |  |
| CTR9 | -0.0445 |  |  |  |  |
| RPS15A | 0.424 |  |  |  |  |
| UBA52 | 0.558 |  |  |  |  |
| PRKACB | -0.134 |  |  |  |  |
| SUPT6H | 0.0526 |  |  |  |  |
| MRPL43 | 0.445 |  |  |  |  |
| RPL22 | 0.576 |  |  |  |  |
| MTMAAAAVVARGAGARAATAAALRGGCGTAARGRPCAGPARPLCTAPGTAPDMKRYLWERYREAKRSTEELVPSIMSNLLNPDAIFSNNEMSLSDIEIYGFDYDYTLVFYSKHLHTLIFNAARDLLINEHRYPAEIRKYEYDPNFAIRGLHYDVQRAVLMKIDAFHYIQLGTVYRGLSVVPDEEVIEMYEGSHVPLEQMSDFYGKSSHGNTMKQFMDIFSLPEMTLLSCVNEYFLKNNIDYEPVHLYKDVKDSIRDVHIKGIMYRAIEADIEKYICYAEQTRAVLAKLADHGKKMFLITNSPSSFVDKGMSYIVGKDWRDLFDVVIVQAEKPNFFNDKRRPFRKMNEKGVLLWDKIHKLQKGQIYKQGNLYEFLKLTGWRGSRVLYFGDHIYSDLADLTLKHGWRTGAIIPELRSELKIMNTEQYIQTMTWLQTLTGLLEQMQVHRDAESQLVLQEWKKERKEMREMTKSFFNAQFGSLFRTDQNPTYFLRRLSRFADIYMASLSCLLNYDVSHTFYPRRTPLQHELPAWSERPPTFGTPLLQEAQAK [NT5DC3] |  | 53.4 °C | 54 °C | -1.05 | -1.22 |
| MAAVVAKREGPPFISEAAVRGNAAVLDYCRTSVSALSGATAGILGLTGLYGFIFYLLASVLLSLLLILKAGRRWNKYFKSRRPLFTGGLIGGLFTYVLFWTFLYGMVHVY [EMC6] |  | 54.6 °C | 54.1 °C | 1.03 | -0.846 |
| MALRELKVCLLGDTGVGKSSIVWRFVEDSFDPNINPTIGASFMTKTVQYQNELHKFLIWDTAGQERFRALAPMYYRGSAAAIIVYDITKEETFSTLKNWVKELRQHGPPNIVVAIAGNKCDLIDVREVMERDAKDYADSIHAIFVETSAKNAININELFIEISRRIPSTDANLPSGGKGFKLRRQPSEPKRSCC [RAB22A] |  | 54.8 °C | 53.7 °C | 1.25 | 0.617 |
| MPGRSCVALVLLAAAVSCAVAQHAPPWTEDCRKSTYPPSGPTYRGAVPWYTINLDLPPYKRWHELMLDKAPVLKVIVNSLKNMINTFVPSGKIMQVVDEKLPGLLGNFPGPFEEEMKGIAAVTDIPLGEIISFNIFYELFTICTSIVAEDKKGHLIHGRNMDFGVFLGWNINNDTWVITEQLKPLTVNLDFQRNNKTVFKASSFAGYVGMLTGFKPGLFSLTLNERFSINGGYLGILEWILGKKDVMWIGFLTRTVLENSTSYEEAKNLLTKTKILAPAYFILGGNQSGEGCVITRDRKESLDVYELDAKQGRWYVVQTNYDRWKHPFFLDDRRTPAKMCLNRTSQENISFETMYDVLSTKPVLNKLTVYTTLIDVTKGQFETYLRDCPDPCIGW [ASAH1] |  | 55.8 °C | 55.9 °C | -1.25 | -2.17 |
| MFTSEKGVVEEWLSEFKTLPETSLPNYATNLKDKSSLVSSLYKVIQEPQSELLEPVCHQLFEFYRSGEEQLLQFTLQFLPELIWCYLAVSASRNVHSSGCIEALLLGVYNLEIVDKQGHTKVLSFTIPSLSKPSVYHEPSSIGSMALTESALSQHGLSKVVYSGPHPQREMLTAQNRFEVLTFLLLCYNAALTYMPSVSLQSLCQICSRICVCGYPRQHVRKYKGISSRIPVSSGFMVQMLTGIYFAFYNGEWDLAQKALDDIIYRAQLELYPEPLLVANAIKASLPHGPMKSNKEGTRCIQVEITPTSSRISRNAVTSMSIRGHRWKRHGNTELTGQEELMEISEVDEGFYSRAASSTSQSGLSNSSHNCSNKPSIGKNHRRSGGSKTGGKEKETTGESCKDHFARKQTQRAQSENLELLSLKRLTLTTSQSLPKPSSHGLAKTAATVFSKSFEQVSGVTVPHNPSSAVGCGAGTDANRFSACSLQEEKLIYVSERTELPMKHQSGQQRPPSISITLSTD [FAM126A] |  |  | 50.9 °C | 0.141 | 0.0377 |
| MARAAPLLAALTALLAAAAAGGDAPPGKIAVVGAGIGGSAVAHFLQQHFGPRVQIDVYEKGTVGGRLATISVNKQHYESGAASFHSLSLHMQDFVKLLGLRHRREVVGRSAIFGGEHFMLEETDWYLLNLFRLWWHYGISFLRLQMWVEEVMEKFMRIYKYQAHGYAFSGVEELLYSLGESTFVNMTQHSVAESLLQVGVTQRFIDDVVSAVLRASYGQSAAMPAFAGAMSLAGAQGSLWSVEGGNKLVCSGLLKLTKANVIHATVTSVTLHSTEGKALYQVAYENEVGNSSDFYDIVVIATPLHLDNSSSNLTFAGFHPPIDDVQGSFQPTVVSLVHGYLNSSYFGFPDPKLFPFANILTTDFPSFFCTLDNICPVNISASFRRKQPQEAAVWRVQSPKPLFRTQLKTLFRSYYSVQTAEWQAHPLYGSRPTLPRFALHDQLFYLNALEWAASSVEVMAVAAKNVALLAYNRWYQDLDKIDQKDLMHKVKTEL [PCYOX1L] |  | 56.6 °C | 56.2 °C | 0.689 | 1.38 |
| MTAEETVNVKEVEIIKLILDFLNSKKLHISMLALEKESGVINGLFSDDMLFLRQLILDGQWDEVLQFIQPLECMEKFDKKRFRYIILKQKFLEALCVNNAMSAEDEPQHLEFTMQEAVQCLHALEEYCPSKDDYSKLCLLLTLPRLTNHAEFKDWNPSTARVHCFEEACVMVAEFIPADRKLSEAGFKASNNRLFQLVMKGLLYECCVEFCQSKATGEEITESEVLLGIDLLCGNGCDDLDLSLLSWLQNLPSSVFSCAFEQKMLNIHVDKLLKPTKAAYADLLTPLISKLSPYPSSPMRRPQSADAYMTRSLNPALDGLTCGLTSHDKRISDLGNKTSPMSHSFANFHYPGVQNLSRSLMLENTECHSIYEESPERDTPVDAQRPIGSEILGQSSVSEKEPANGAQNPGPAKQEKNELRDSTEQFQEYYRQRLRYQQHLEQKEQQRQIYQQMLLEGGVNQEDGPDQQQNLTEQFLNRSIQKLGELNIGMDGLGNEVSALNQQCNGSKGNGSNGSSVTSFTTPPQDSSQRLTHDASNIHTSTPRNPGSTNHIPFLEESPCGSQISSEHSVIKPPLGDSPGSLSRSKGEEDDKSKKQFVCINILEDTQAVRAVAFHPAGGLYAVGSNSKTLRVCAYPDVIDPSAHETPKQPVVRFKRNKHHKGSIYCVAWSPCGQLLATGSNDKYVKVLPFNAETCNATGPDLEFSMHDGTIRDLAFMEGPESGGAILISAGAGDCNIYTTDCQRGQGLHALSGHTGHILALYTWSGWMIASGSQDKTVRFWDLRVPSCVRVVGTTFHGTGSAVASVAVDPSGRLLATGQEDSSCMLYDIRGGRMVQSYHPHSSDVRSVRFSPGAHYLLTGSYDMKIKVTDLQGDLTKQLPIMVVGEHKDKVIQCRWHTQDLSFLSSSADRTVTLWTYNG [WDR47] |  | 54.4 °C | 52.6 °C | -2.39 | -1.92 |
| SBF2 |  |  | 52.3 °C | -0.139 | 0.0344 |
| MEVGGDTAAPAPGGAEDLEDTQFPSEEAREGGGVHAVPPDPEDEGLEETGSKDKDQPPSPSPPPQSEALSSTSRLWSPAAPENSPTCSPESSSGGQGGDPSDEEWRSQRKHVFVLSEAGKPIYSRYGSVEALSATMGVMTALVSFVQSAGDAIRAIYAEDHKLVFLQQGPLLLVAMSRTSQSAAQLRGELLAVHAQIVSTLTRASVARIFAHKQNYDLRRLLAGSERTLDRLLDSMEQDPGALLLGAVRCVPLARPLRDALGALLRRCTAPGLALSVLAVGGRLITAAQERNVLAECRLDPADLQLLLDWVGAPAFAAGEAWAPVCLPRFNPDGFFYAYVARLDAMPVCLLLLGTQREAFHAMAACRRLVEDGMHALGAMRALGEAASFSNASSASAPAYSVQAVGAPGLRHFLYKPLDIPDHHRQLPQFTSPELEAPYSREEERQRLSDLYHRLHARLHSTSRPLRLIYHVAEKETLLAWVTSKFELYTCLSPLVTKAGAILVVTKLLRWVKKEEDRLFIRYPPKYSTPPATSTDQAAHNGLFTGL [MON1B] |  | 52.9 °C | 52.7 °C | -0.93 | -0.544 |
| MQPPGPPPAYAPTNGDFTFVSSADAEDLSGSIASPDVKLNLGGDFIKESTATTFLRQRGYGWLLEVEDDDPEDNKPLLEELDIDLKDIYYKIRCVLMPMPSLGFNRQVVRDNPDFWGPLAVVLFFSMISLYGQFRVVSWIITIWIFGSLTIFLLARVLGGEVAYGQVLGVIGYSLLPLIVIAPVLLVVGSFEVVSTLIKLFGVFWAAYSAASLLVGEEFKTKKPLLIYPIFLLYIYFLSLYTGV [YIPF4] |  | 57.7 °C | 56.1 °C | -0.481 | -2.96 |
| MREYKVVVLGSGGVGKSALTVQFVTGSFIEKYDPTIEDFYRKEIEVDSSPSVLEILDTAGTEQFASMRDLYIKNGQGFILVYSLVNQQSFQDIKPMRDQIIRVKRYERVPMILVGNKVDLEGEREVSYGEGKALAEEWSCPFMETSAKNKASVDELFAEIVRQMNYAAQPNGDEGCCSACVIL [RAP2B] |  | 59.2 °C | 60.7 °C | -0.0087 | 0.542 |
